The record followed here is PMC5615076, “Prolonged seizure activity causes caspase dependent cleavage and dysfunction of G-protein activated inwardly rectifying potassium channels” (Scientific Reports, 2017).

The target in this assay is T1, Gβ1γ2 tagged with yellow fluorescent proteins (YFP-Gβ1 and YFP-Gγ2) (UniProt P62873 1-340; P59768 1-71).
T1 construct: G protein subunit beta-1 (Gβ1), from plasmid pcDNA3.1-YFP-G-protein Gβ1 (gift of N. Gautam); G protein subunit gamma-2 (Gγ2), from plasmid pcDNA3.1-YFP-G-protein-Gγ2 (gift of N. Gautam); Both chains co-expressed and precipitated together with anti-GFP antibodies; also called Gβγ; source: HEK293T, transfected (pcDNA3.1-YFP-G-protein Gβ1 and pcDNA3.1-YFP-G-protein-Gγ2), in lysate
The experiment in a line: co-IP; HEK293T cells co-transfected with YFP-Gβ1, YFP-Gγ2 and GIRK2A WT or Y353X (doubled plasmid for Y353X); IP 24 h after transfection with mouse anti-GFP antibodies and Protein A/G agarose; blot with anti-GIRK2 N-terminal antibodies; band ratio GIRK2A/YFP-Gβ1 normalised to GIRK2A WT. Conditions: partners not purified.

B1: GIRK2A-Y353X (domain or fragment)
chain: MTMAKLTESMTNVLEGDSMDQDVESPVAIHQPKLPKQARDDLPRHISRDRTKRKIQRYVRKDGKCNVHHGNVRETYRYLTDIFTTLVDLKWRFNLLIFVMVYTVTWLFFGMIWWLIAYIRGDMDHIEDPSWTPCVTNLNGFVSAFLFSIETETTIGYGYRVITDKCPEGIILLLIQSVLGSIVNAFMVGCMFVKISQPKKRAETLVFSTHAVISMRDGKLCLMFRVGDLRNSHIVEASIRAKLIKSKQTSEGEFIPLNQSDINVGYYTGDDRLFLVSPLIISHEINQQSPFWEISKAQLPKEELEIVVILEGIVEATGMTCQARSSYITSEILWGYRFTPVLTMEDGFYEVD
notes: GIRK2A (Kir3.2, cDNA NM_010606.2) with Y353 mutated to a stop codon, so the chain ends at D352 of the 349YEVD352 motif; mimics GIRK2A cleaved by caspase-3; Untagged; made by QuikChange mutagenesis of pcDNA3-GIRK2A; also called GIRK2-Y353X; truncated GIRK2A-Y353X; source: HEK293T, transfected (FuGENE6, pcDNA3-GIRK2A Y353X, doubled amount of plasmid), in lysate
Regarding B1, the “coimmunoprecipitation, % of wild-type GIRK2A” value is 50 % of wild-type GIRK2A.
